Molecular target: hCINAP-H79G mutant (human) (UniProt Q9Y3D8)
Assay: SEC

- stoichiometry N: 2
Substance: hCINAP-H79G mutant (from UniProt Q9Y3D8 1-172) (enzyme)

Reference: PMC3839082
